Several values for one entry are separate records, joined by “and”; a condition that tells them apart may be missing. Equal entries are not always repeated.

Assay [1] concerns the target P14 T cell receptor (TCR that specifically recognizes LCMV GP33/D^b), on CD8+ T cells of P14 TCR transgenic mice (mouse). The assay can be described thus: flow cytometry, APNs on CD8+ T cells from P14 mice, in vitro. Background: A flow cytometer gives signals particle by particle.
The target is the same in assay [2]. The assay can be described thus: flow cytometry after intravenous injection of pMHC-LNPs carrying mCD19 CAR mRNA in p14 mice.
For assay [3] the target is unchanged.
The target of assay [4] is Pmel T cell receptor (cognate TCR against GP100/D^b), on CD8+ T cells of Pmel TCR transgenic mice (mouse). Nature of the assay: cell-based or functional assay.
Assay [5] has as its target P14 T cell receptor (TCR that specifically recognizes LCMV GP33/D^b), on CD8+ T cells of P14 TCR transgenic mice (mouse). The assay can be described thus: cell-based or functional assay.
Assay [6] shares this target. The source holds these as a separate data set.

Turning to “GP33/D^b antigen-presenting nanoparticle (APN): LCMV GP33 peptide […] on H2-D^b, lipid-anchore (peptide-MHC)”, the percent of CD8+ T cells bound in assay [1] was 97%. The percent of CD8+ T cells targeted in assay [2] is greater than 80%. Moreover, the percent of CD8+ T cells targeted (DiD fluorescence) in assay [3] is greater than 95%. This substance also gave an in vivo transfection of Pmel CD8+ splenocytes (surface VHH) in assay [4] of 3%. For the same substance, in assay [5], the in vivo transfection efficiency (surface VHH) of P14 CD8+ splenocytes came out at 40%, the in vivo transfection efficiency of mCD19 CAR mRNA in CD8+ T cells of p14 mice turned out to be 60%, the in vivo transfection of CD8+ T cells with hCD19 CAR mRNA in p14 mice is 30% and the transfection efficiency with eGFP mRNA in P14 CD8+ T cells in vitro came out at 31%.
In assay [6], “GP33/D^b tetramer (fluorescent streptavidin tetramer of […]/H2-D^b monomers) (from UniProt P01899 25-309) (peptide-MHC)” registered a percent of CD8+ splenocytes stained greater than 95%.
As to “GP100/D^b antigen-presenting nanoparticle (APN): GP100 peptide … on H2-D^b on an mRNA lipid nanoparticle (peptide-MHC)”, the percent of CD8+ T cells stained in assay [1] is 3.22%. Also, the percent binding (DiD fluorescence) in assay [3] is less than 2%. The in vivo transfection of Pmel CD8+ splenocytes (surface VHH) in assay [4] is 30% and 40%. Also, in assay [5], the in vivo transfection efficiency (surface VHH) of P14 CD8+ splenocytes is less than 2%.

These data come from patent US20240382606A1.
